Results on one molecule are retold here after paper PMC7749166 (Communications Biology, 2020).

One assay concerns the target T1, C5aR^D282A (Homo sapiens, UniProt P21730, D282A).
T1 construct: Flag (N); His8 (C); made in house; host or cells: HEK-293S cells (BacMam baculovirus)
T1 sequence (P21730 1-350 D282A): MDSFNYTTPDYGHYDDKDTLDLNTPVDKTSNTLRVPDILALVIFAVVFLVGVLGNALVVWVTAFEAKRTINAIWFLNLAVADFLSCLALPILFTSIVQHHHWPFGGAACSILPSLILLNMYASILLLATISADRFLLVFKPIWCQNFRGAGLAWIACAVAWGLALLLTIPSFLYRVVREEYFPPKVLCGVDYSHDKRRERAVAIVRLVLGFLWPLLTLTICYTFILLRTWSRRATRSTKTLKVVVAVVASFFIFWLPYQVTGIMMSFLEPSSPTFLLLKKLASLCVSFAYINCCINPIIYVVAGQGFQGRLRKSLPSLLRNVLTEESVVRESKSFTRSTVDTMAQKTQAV
Put plainly: FD-/FV-based AFM dynamic force spectroscopy vs D282A mutant. The assay is classed as binding. As for the experimental part:
(§1) The reconstituted C5aR sample solution (either wt-C5aR or mutants) was 20-fold diluted in fusion buffer solution (20 mM HEPES, 300 mM NaCl, and 25 mM MgCl2) and adsorbed on freshly cleaved mica for 15 min. After rinsing with imaging buffer (20 mM HEPES and 300 mM NaCl) the sample was transferred to the AFM.
Rectangular Si3N4 AFM cantilevers with silicon tips (BioLever mini, Bruker) were first cleaned with chloroform for 10 min, rinsed with ethanol, N2 dried, and then cleaned for 15 min in an ultraviolet radiation and ozone cleaner (UV-O, Jetlight, CA, USA). For the aminofunctionalization, the cantilevers were immersed in an ethanolamine solution (3.3 g ethanolamine in 6.6 ml DMSO) overnight and then rinsed in DMSO (3 × 1 min) and ethanol (3 × 1 min), followed by N2 drying. This was followed by the N-hydroxysuccinimide (NHS)-PEG27-acetal linker attachment. A 1 mg portion of the NHS-PEG27-acetal linker (JKU, Linz, Austria) was diluted in 0.5 ml chloroform with 30 µl triethylamine and the cantilevers were immersed in this solution for 2 h. After three rinsing steps of 10 min in chloroform and N2 drying, the cantilevers were immersed in a 1% citric acid solution for 10 min, rinsed with pure water (3 × 5 min), and dried with N2 once more. tris-NTA-derivatized AFM cantilevers were obtained by pipetting 100 µl of a 100 µM tris-N-nitrilotriacetic amine trifluoroacetate (Toronto Research Chemicals, Canada) (tris-NTA) solution onto the cantilevers, followed by the addition of 2 μl of a freshly prepared 1 M NaCNBH3 solution. The cantilevers were incubated for 1 h, then 5 μl of a 1 M ethanolamine solution pH 8.0 was added for 10 min to quench the reaction. tris-NTA cantilevers were further used to obtain C5a-derivatized tips. For this purpose, 100 μl of a 1 μM C5a protein solution was premixed with 5 μl NiCl2 5 mM and the mixture was pipetted onto the tris-NTA cantilevers. After 2 h of incubation time, the cantilevers were washed in HEPES buffer 3 × 5 min.
(JKU, Linz, Austria) dissolved in 0.5 ml of chloroform with 30 μl of triethylamine, then washed with chloroform and dried with N2. […] After 3 h of reaction, cantilevers were washed with PBS 3 × 5 min.
AFM experiments were performed with a Multimode 8 AFM equipped with a Nanoscope V controller (Bruker, Santa Barbara, CA, USA) operated in “PeakForce Tapping QNM mode”. All measurements were carried out in imaging buffer at room temperature (≈24 °C). […]
In FD-based AFM measurements, the AFM cantilever is oscillated in a sinusoidal manner well below its resonance frequency, while the sample surface is contoured pixel-by-pixel. For each approach–retraction cycle of the oscillating cantilever, a force–distance curve is recorded. […] Adhesion maps were recorded using a scan rate of 0.2 Hz and 256 × 256 pixels. […]

The next assay relates to C5aR∆Tyr. In words: FD-/FV-based AFM dynamic force spectroscopy vs Tyr mutant (Y11F, Y14F). The assay is classed as binding, human. The following applies: C5a tip (probes effector site), FNdY fit.
Source text: Finally, to obtain the full picture of the binding mechanism between C5a and its receptor, we also investigated the binding interaction between the C-terminal segment of C5a and the effector site. To achieve this, we abolished the interaction that the rigid core of C5a establishes with sulfonated residues at the binding site, so the C5aR∆Tyr mutant with mutation sites Y11F and Y14F was generated. The lack of sulfonation on the C5aR∆Tyr mutant was validated by western blot using anti-sulfated tyrosine antibodies (Fig. S1). The interaction between the C5a ligand and C5aR∆Tyr was measured and the dependence of the rupture force with the loading rate was plotted in the DFS graph in Fig. 5d. We extracted an equilibrium force Feq of 32 ± 5 pN, a binding equilibrium free energy ΔGbu of −4.7 ± 1.4 kcal mol^−1, and a receptor–ligand half-residence time, τ0.5 of 0.6 ms.
as §1
Rectangular Si3N4 AFM cantilevers with silicon tips (BioLever mini, Bruker) were first cleaned with chloroform for 10 min, rinsed with ethanol, N2 dried, and then cleaned for 15 min in an ultraviolet radiation and ozone cleaner (UV-O, Jetlight, CA, USA). For the aminofunctionalization, the cantilevers were immersed in an ethanolamine solution (3.3 g ethanolamine in 6.6 ml DMSO) overnight and then rinsed in DMSO (3 × 1 min) and ethanol (3 × 1 min), followed by N2 drying. This was followed by the N-hydroxysuccinimide (NHS)-PEG27-acetal linker attachment. A 1 mg portion of the NHS-PEG27-acetal linker (JKU, Linz, Austria) was diluted in 0.5 ml chloroform with 30 µl triethylamine and the cantilevers were immersed in this solution for 2 h. […]

Where [1] appears, read: FNdY fit, ± s.e.m., ligand-derivatized AFM tip, 20 mM HEPES, 300 mM NaCl, ≈24 °C.

B1: C5a: C5a, a large 74-amino acid glycoprotein; endogenous ligand of C5aR (His6-tag at N-terminal end for AFM tips) (protein)
chain: TLQKKIEEIAAKYKHSVVKKCCYDGACVNNDETCEQRAARISLGPRCIKAFTECCVVASQLRANISHKDMQLGR
modifications: left off: His6, N-terminal, kept
For B1, the “drop of the ΔGbu vs wild type” value in the assay with C5aR^D282A (AFM, D282A vs WT) is on record as “four”. Also, the “binding equilibrium free energy ΔGbu” value in the assay with C5aR^D282A (setting [1]) was -3.4 ± 0.7 kcal/mol; with C5aR∆Tyr (± s.e.m.), -4.7 ± 1.4 kcal/mol. Moreover, the “equilibrium force Feq” value is listed as 27 ± 3 pN with C5aR^D282A (setting [1]) and 32 ± 5 pN in the assay with C5aR∆Tyr (± s.e.m.). Also, the “residence time τ0.5” value with C5aR^D282A (FNdY fit, ligand-derivatized AFM tip, 20 mM HEPES, 300 mM NaCl, ≈24 °C) is on record as 0.08 ms; in the assay with C5aR∆Tyr, 0.6 ms.
